No end group written: not given here.
Key:
human NMUR2 [1] = molecular target: T1, human NMUR2 (human, UniProt Q9GZQ4 1-415); experiment: 125I-hNMU-25 displacement, HEK cell membranes
T1 construct: whole, on cells; Stably expressed in cells (FLIPR); also called hNMUR2; human R2
Description: Confluent cell monolayers expressing NMU receptors (the HEK cells described above) were harvested with phosphate buffered saline, collected by centrifugation, and resuspended in membrane buffer (50 mM TrisCl pH 7.4, 5 mM MgCl₂, 1× Protease Inhibitor Cocktail, 10 μM phosphoramidon). After the cell pellet was homogenized, the solution was centrifuged at 18,000 rpm for 20 minutes at 4° C. The pellet was resuspended in membrane buffer to yield a final concentration of 0.5-5 μg/μL of membrane and stored at −80° C.
Experiments were performed in assay buffer (25 mM TrisCl, pH 7.4, 10 mM MgCl₂, 2mM EDTA, 1× Protease Inhibitor Cocktail, 100 μg/mL Bacitricin, 10 μM phosphoramidon) in 200 μL volumes in a 96-well format using 2-5 μg of membrane and […] ¹²⁵I-hNMU-25 (about 12,000 cpm/well). For non-specific binding, 1 μM hNMU-25 was added. About 5 μL of peptides were added to measure antagonist activity, and the entire reaction was incubated at room temperature with shaking for 80 minutes. The reaction was terminated by rapid filtration through 0.3% poly-ethylenimine presoaked Millipore 96-well filter plates and washed with ice-cold buffer (5 mM TrisCl pH 7.4, 10 mM MgCl₂, 2.5 mM EDTA, 0.04% Triton X-100). Plates were air-dried overnight at room temperature and recovered radioactivity was determined by standard scintillation counting. IC₅₀ values were determined using GraphPad Prism software.
Concentration-response curves and radioligand-binding data were fitted using Prism (GraphPad Software). Results are summarized below in Tables 8 and 9.

[2] = molecular target: T2, human NMUR1 (human), Q9HB89; experiment: 125I-hNMU-25 displacement, HEK cell membranes; conditions: remark: other sources report otherwise
T2 chain: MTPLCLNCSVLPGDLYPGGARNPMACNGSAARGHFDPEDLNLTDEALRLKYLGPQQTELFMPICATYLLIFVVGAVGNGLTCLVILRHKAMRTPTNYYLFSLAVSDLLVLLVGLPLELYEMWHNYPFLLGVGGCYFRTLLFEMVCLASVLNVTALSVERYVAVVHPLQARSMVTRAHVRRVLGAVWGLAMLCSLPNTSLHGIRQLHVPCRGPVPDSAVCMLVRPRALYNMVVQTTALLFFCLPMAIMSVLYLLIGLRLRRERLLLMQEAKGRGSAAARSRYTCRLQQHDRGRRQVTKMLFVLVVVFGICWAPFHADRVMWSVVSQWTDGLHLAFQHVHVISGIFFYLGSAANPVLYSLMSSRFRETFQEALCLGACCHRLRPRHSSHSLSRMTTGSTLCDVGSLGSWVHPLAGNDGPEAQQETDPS

human NMUR2 [3] = molecular target: T1, human NMUR2; experiment: cell-based or functional assay
human NMUR1 = molecular target: T3, human NMUR1 (human, UniProt Q9HB89 1-426); experiment: cell-based or functional assay
T3 sequence (looked up): T2 chain

T1 sequence (Q9GZQ4 whole entry): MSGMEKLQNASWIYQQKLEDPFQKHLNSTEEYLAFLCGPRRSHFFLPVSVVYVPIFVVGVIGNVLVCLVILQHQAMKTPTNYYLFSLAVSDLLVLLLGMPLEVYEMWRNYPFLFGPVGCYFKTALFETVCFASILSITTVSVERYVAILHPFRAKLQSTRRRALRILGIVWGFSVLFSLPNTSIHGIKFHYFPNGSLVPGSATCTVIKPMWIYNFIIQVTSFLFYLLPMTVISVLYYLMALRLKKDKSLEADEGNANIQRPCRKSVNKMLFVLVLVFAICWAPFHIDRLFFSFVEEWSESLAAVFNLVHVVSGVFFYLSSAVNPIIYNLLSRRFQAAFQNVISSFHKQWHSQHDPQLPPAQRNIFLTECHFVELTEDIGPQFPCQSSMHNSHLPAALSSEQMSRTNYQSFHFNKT

FWLFRARN-NH2 [neuromedin U receptor agonist L]
% activity (binding) (human NMUR2 [1]): 100% | IC50 (human NMUR2 [1]): 37 nM | % activity (binding) [2]: 0% | % activity (human NMUR2 [3]): 100% | EC50 (human NMUR2 [3]): 6.2 nM | % activity (human NMUR1): 74% | EC50 (human NMUR1): > 1000 nM

Reference: patent publication US20070244048A1 (published 2007)
